{"source": "paper PMC5065780", "binders": {"B1": {"name": "10 bp dsRNA probe (dsRNA)", "RNA 1": "CACUGCGACC", "RNA 2": "GGUCGCAGUG"}}, "molecular_target": "VP35 IID (interferon inhibitory domain) (Ebola virus, UniProt X5GXU1 215-340)", "test": "EMSA", "data": [{"binder": "B1", "values": [{"measurement": "binding result", "value": "binds"}]}]}
